Drawing on paper PMC11931385, “Structural and functional analysis of cancer-associated missense variants in the retinoblastoma protein pocket domain” (The Journal of Biological Chemistry, 2025), this text covers Kd for two molecules.

Numbering of substitutions follows the chain as printed. In names and notes the source's numbering stands. No end group written: not given here. TMR = tetramethyl rhodamine dye

Common to all, as to assay: fluorescence polarisation; 25 °C; unlabeled Rb^P titrated against 1.5 nM TMR-E2F1^TD or 7.5 nM TMR-E7^LxCxE; 25 mM Tris pH 8.0, 200 mM NaCl, 1 mM DTT, 0.1% Tween-20; 2 min incubation; quadratic fit; apparent Kd for the variants, Kd for WT
Details in all cases: both partners purified
Background: In fluorescence polarisation assays a small probe gives low polarisation when free and higher when bound to something large.

Assay [1] concerns the target T1, Rb^P S588F (human, UniProt P06400 380-788, S588F).
T1 construct: also called variant 34
T1 sequence (looked up): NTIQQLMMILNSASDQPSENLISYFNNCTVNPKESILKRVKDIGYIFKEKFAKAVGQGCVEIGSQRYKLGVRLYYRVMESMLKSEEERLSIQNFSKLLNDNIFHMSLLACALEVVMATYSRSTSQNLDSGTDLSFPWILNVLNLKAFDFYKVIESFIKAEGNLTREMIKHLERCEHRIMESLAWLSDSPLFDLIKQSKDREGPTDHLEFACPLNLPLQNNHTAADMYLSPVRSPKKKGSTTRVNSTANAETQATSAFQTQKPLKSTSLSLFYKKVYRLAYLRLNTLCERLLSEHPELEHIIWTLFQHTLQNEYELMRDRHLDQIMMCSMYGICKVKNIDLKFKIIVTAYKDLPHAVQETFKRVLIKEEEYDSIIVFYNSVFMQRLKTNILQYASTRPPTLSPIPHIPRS

The target of assay [2] is T2, Rb^P R621H (human, UniProt P06400 380-788, R621H).
T2 construct: also called variant 42
T2 sequence (looked up): T1 sequence (looked up) with F209S, R242H

In assay [3] the target is T3, Rb^P S648T (human, UniProt P06400 380-788, S648T).
T3 construct: also called variant 46
T3 sequence (looked up): T1 sequence (looked up) with F209S, S269T

The target in assay [4] is T4, Rb^P H673Y (human, UniProt P06400 380-788, H673Y).
T4 construct: also called variant 55
T4 sequence (looked up): T1 sequence (looked up) with F209S, H294Y

Assay [5] deals with T5, Rb^P R741H (human, UniProt P06400 380-788, R741H).
T5 construct: also called variant 69
T5 sequence (looked up): T1 sequence (looked up) with F209S, R362H

B1: TMR-E2F1^TD, peptide of the E2F1 transactivation domain (peptide)
peptide: {TMR}-GEGIRDLFDCDFGDLTPLD
notes: also called E2F^TD; source: synthetic peptide, bought: GenScript
As to B1, the Kd is 36 nM in assay [1]; 30 nM in assay [2]; 33 nM in assay [3]; 26 nM in assay [4]; 21 nM in assay [5].

B2: TMR-E7^LxCxE, LxCxE peptide of the E7 oncoprotein from HPV (peptide)
peptide: DLYCYEQLN
modifications: also: TMR label, position not given here
notes: source: synthetic peptide, bought: GenScript
In the case of B2, the Kd in assay [1] stood at 5 nM; in assay [2] it was 10 nM; in assay [3] it was 6 nM; in assay [4] it was 10 nM; in assay [5], 18 nM.
